Experimental data taken from article PMC3466232, “FUS-NLS/Transportin 1 Complex Structure Provides Insights into the Nuclear Targeting Mechanism of FUS and the Implications in ALS” (PLoS ONE, 2012).
Changes are numbered by the printed parent chain. Names and notes keep the numbering of the source.

T1: human transportin 1 (Trn1, residues 1-890) (human, UniProt Q92973-2 1-890)
T1 construct: transportin 1 (Trn1), human, full-length, residues 1-890; numbers count on: the 890-residue form; Cloned in pGEX-4T-3 with a TEV site; clone was a gift from Y. M. Chook; source: E. coli BL21 (DE3), purified (glutathione Sepharose, TEV cleavage, HiTrap Q FF, Superdex 200)
T1 sequence (looked up): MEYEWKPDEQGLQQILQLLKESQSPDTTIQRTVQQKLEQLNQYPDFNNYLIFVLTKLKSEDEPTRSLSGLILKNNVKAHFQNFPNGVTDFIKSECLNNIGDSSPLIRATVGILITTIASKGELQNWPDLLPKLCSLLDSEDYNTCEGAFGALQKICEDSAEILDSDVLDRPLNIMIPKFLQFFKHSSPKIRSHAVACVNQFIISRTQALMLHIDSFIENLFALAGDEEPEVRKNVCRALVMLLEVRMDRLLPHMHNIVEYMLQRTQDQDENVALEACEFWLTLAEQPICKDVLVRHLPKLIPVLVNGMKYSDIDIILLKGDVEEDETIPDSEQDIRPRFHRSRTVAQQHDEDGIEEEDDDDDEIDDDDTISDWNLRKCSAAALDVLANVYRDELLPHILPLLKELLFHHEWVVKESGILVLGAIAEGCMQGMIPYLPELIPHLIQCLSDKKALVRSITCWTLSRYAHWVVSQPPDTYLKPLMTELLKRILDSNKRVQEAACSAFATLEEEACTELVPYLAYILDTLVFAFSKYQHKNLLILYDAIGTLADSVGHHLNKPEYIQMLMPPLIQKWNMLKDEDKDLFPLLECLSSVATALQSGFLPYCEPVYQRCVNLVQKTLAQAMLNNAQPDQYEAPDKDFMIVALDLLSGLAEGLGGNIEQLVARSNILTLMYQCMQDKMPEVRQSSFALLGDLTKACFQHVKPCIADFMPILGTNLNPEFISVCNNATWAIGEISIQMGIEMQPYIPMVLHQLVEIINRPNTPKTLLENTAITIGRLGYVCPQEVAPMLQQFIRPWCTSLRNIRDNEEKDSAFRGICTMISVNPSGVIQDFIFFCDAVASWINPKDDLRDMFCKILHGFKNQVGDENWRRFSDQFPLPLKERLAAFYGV

B1: FUS-NLS(E523Y) (domain or fragment, human, UniProt P35637 495-526, looked up)
chain: RGGRGGGDRGGFGPGKMDSRGEHRQDRRYRPY
notes: Designed from the structure; not found in familial ALS patients; not shown: GST, N-terminal, cleaved
B2: nuclear localization sequence of human FUS (FUS-NLS, residues 495-526), wild type (domain or fragment, UniProt P35637 495-526, looked up)
chain: B1 chain with Y29E
notes: Cloned in pGEX-6P-2; also called FUS-NLS(WT); WT; not shown: GST, N-terminal, cleaved
B3: FUS-NLS(R521G) (domain or fragment, human, UniProt P35637 495-526, looked up)
chain: B1 chain with R27G, Y29E
notes: ALS-associated mutation found in patients; made by site-directed mutagenesis; not shown: GST, N-terminal, cleaved
B4: FUS-NLS(E523S) (domain or fragment, human, UniProt P35637 495-526, looked up)
chain: B1 chain with Y29S
notes: as for B1
B5: FUS-NLS(G507D) (domain or fragment, human, UniProt P35637 495-526, looked up)
chain: B1 chain with G13D, Y29E
notes: as for B3
B6: FUS-NLS(G515C) (domain or fragment, human, UniProt P35637 495-526, looked up)
chain: B1 chain with G21C, Y29E
notes: as for B3
B7: FUS-NLS(R524S) (domain or fragment, human, UniProt P35637 495-526, looked up)
chain: B1 chain with Y29E, R30S
notes: as for B3
B8: FUS-NLS(R518K) (domain or fragment, human, UniProt P35637 495-526, looked up)
chain: B1 chain with R24K, Y29E
notes: as for B3
B9: FUS-NLS(S513P) (domain or fragment, human, UniProt P35637 495-526, looked up)
chain: B1 chain with S19P, Y29E
notes: as for B3
B10: FUS-NLS(R522G) (domain or fragment, human, UniProt P35637 495-526, looked up)
chain: B1 chain with R28G, Y29E
notes: as for B3
B11: FUS-NLS(R518G) (domain or fragment, human, UniProt P35637 495-526, looked up)
chain: B1 chain with R24G, Y29E
notes: as for B3
B12: FUS-NLS(P525L) (domain or fragment, human, UniProt P35637 495-526, looked up)
chain: B1 chain with Y29E, P31L
notes: as for B3
B13: FUS-NLS(R514G) (domain or fragment, human, UniProt P35637 495-526, looked up)
chain: B1 chain with R20G, Y29E
notes: as for B3
B14: FUS-NLS(K510E) (domain or fragment, human, UniProt P35637 495-526, looked up)
chain: B1 chain with K16E, Y29E
notes: as for B3
B15: FUS-NLS(H517P) (domain or fragment, human, UniProt P35637 495-526, looked up)
chain: B1 chain with H23P, Y29E
notes: as for B3
B16: FUS-NLS(Y526A) (domain or fragment, human, UniProt P35637 495-526, looked up)
chain: B1 chain with Y29E, Y32A
notes: as for B1

The binders below were run against T1, human transportin 1 (Trn1, residues …) (assay: SPR; BIAcore 3000, 25°C; Trn1 immobilised on a CM5 chip by amine coupling (about 8600 RU); FUS-NLS injected at increasing concentrations, 50 µl/min; 20 mM HEPES pH 7.3, 110 mM potassium acetate, 2 mM magnesium acetate, 2 mM EGTA, 2 mM DTT, 10% glycerol, 0.005% Tween 20; 1:1 Langmuir fit). Settings: both partners purified.

Question: Does B1 bind?
Answer: Result: binds

Target: T1, human transportin 1 (Trn1, residues …)
Test: as above
Settings: both partners purified
Remark: another data set of the same source

Question: Which Kd does the source give for B2 here?
Answer: Its Kd is 1.7 nM.

Question: What about the koff of the same binder?
Answer: The koff was 0.0037 s⁻¹.

Question: What about the kon of the same binder?
Answer: Its kon is 2.3e+06 M⁻¹ s⁻¹.

Question: Which Kd does the source give for B3 here?
Answer: The Kd was 25 nM.

Question: What about the koff of the same binder?
Answer: The koff was 0.0034 s⁻¹.

Question: And the kon?
Answer: The kon was 140000 M⁻¹ s⁻¹.

Question: What does the source list for B4?
Answer: Kd: 2 nM; koff: 1.1e-05 s⁻¹; kon: 5500 M⁻¹ s⁻¹

Question: Which results are given for B5?
Answer: Kd: 7.8 nM; koff: 0.044 s⁻¹; kon: 5.7e+06 M⁻¹ s⁻¹

Question: How did the Kd turn out when B6 was run?
Answer: The Kd was 2.8 nM.

Question: What about the koff of the same binder?
Answer: The koff was 0.0051 s⁻¹.

Question: And the kon?
Answer: Its kon is 1.8e+06 M⁻¹ s⁻¹.

Question: Which Kd does the source give for B7 here?
Answer: Its Kd is 10 nM.

Question: And the koff?
Answer: Its koff is 0.058 s⁻¹.

Question: What about the kon of the same binder?
Answer: Its kon is 5.6e+06 M⁻¹ s⁻¹.

Question: How did the Kd turn out when B8 was run?
Answer: Its Kd is 13 nM.

Question: And the koff?
Answer: The koff was 0.078 s⁻¹.

Question: And the kon?
Answer: The kon was 6e+06 M⁻¹ s⁻¹.

Question: With B9 as the binder, how does the Kd read?
Answer: Its Kd is 2.4 nM.

Question: What about the koff of the same binder?
Answer: The koff was 0.023 s⁻¹.

Question: And the kon?
Answer: The kon was 9.4e+06 M⁻¹ s⁻¹.

These binders were tested against T1, human transportin 1 (Trn1, residues …) (assay: SPR; BIAcore 3000, 25°C; Trn1 immobilised on a CM5 chip by amine coupling (about 8600 RU); same running buffer; kd too fast to be fit, KD from steady state equilibrium binding against the concentration of the injected protein). Settings: both partners purified.

Question: Which Kd does the source give for B10 here?
Answer: Its Kd is 350 nM.

Question: Which Kd does the source give for B11 here?
Answer: Its Kd is 150 nM.

Question: With B12 as the binder, how does the Kd read?
Answer: The Kd was 1200 nM.

Question: B13 was tested. Which Kd did it give?
Answer: Its Kd is 67 nM.

Question: For B14, which Kd is on record?
Answer: The Kd was 150 nM.

Question: How did the Kd turn out when B15 was run?
Answer: The Kd was 140 nM.

Question: For B16, which Kd is on record?
Answer: The Kd was 890 nM.
